Measurements published in the supplement of paper PMC7877785.
± gives the uncertainty stated by the source.

Assay: self-splicing fitness, log relative to wild type (ln ratio); higher = more splicing; Tetrahymena group I intron in knt gene, E. coli kanamycin selection, DiMSum; sequences stand for … in CUCUCU…GGAGGGAAAAGUUAUCAGGCAUGCACCUGGUAGCUAGUCUUUAAACCAAUAGAUUGCAUCGGUUUAAAAGGCAAGACCGUCAAAUUGCGGGAAAGGGGUCAACAGCCGUUCAGUACCAAGUCUCAGGGGAAACUUUGAGAUGGCCUUGCAAAGGGUAUGGUAAUAAGCUGACGGACAUGGUCCUAACCACGCAGCCAAGUCCUAAGUCAACAGAUCUUCUGUUGAUAUGGAUGCAGUUCACAGACUAAAUGUCGGUCGGGGAAGAUGUAUUCUUCUCAUAAGAUAUAGUCGGACCUCUCCUUAAUGGGAGCUAGCGGAUGAAGUGAUGCAACACUGGAGCCGCUGGGAACUAAUUUGUAUGCGAAAGUAUAUUGAUUAGUUUUGGAGUACUCGUGGUCG
Method in brief: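 Colonies from six replicate transformations of E. coli BL21(DE3) were pooled and amplicon-sequenced on an Illumina HiSeq 2500. The library placed an intron with all eight P1ex-region nucleotides randomised inside the knt kanamycin-resistance gene on pET-22b(+), and cells grew overnight at 37°C or 30°C on LB agar with or without 25 μg/mL kanamycin (plus 100 μg/mL carbenicillin, 50 μM IPTG, 0.2% rhamnose). Fitness is the DiMSum error-weighted combination of wild-type-normalised replicate fold changes, kanamycin versus none.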

Sequence	self-splicing fitness (ln) (30 °C)	self-splicing fitness (ln) (37 °C)
AGAAAGCAAUAUUACGGGCC	-1.66 ± 0.14	-1.04 ± 0.13
AGAAAGCAAUAUUACGGUGG	-3.11 ± 0.18	-2.32 ± 0.17
AGAAAGCAAUAUUACGUAUG	-2.58 ± 0.12	-3.05 ± 0.19
AGAAAGCAAUAUUACGUGGC	-3.67 ± 0.3	-1.14 ± 0.19
AGAAAGCAAUAUUACGUUAC	-3.26 ± 0.19	-1.89 ± 0.18
AGAAAGCAAUAUUACGUUGG	-3.2 ± 0.2	-0.323 ± 0.12
AGACAGCAAUAUUACGACCG	-1.4 ± 0.12	-0.429 ± 0.14
AGACAGCAAUAUUACGACGA	-1.29 ± 0.13	-0.547 ± 0.12
AGACAGCAAUAUUACGACGU	0.00817 ± 0.047	-0.185 ± 0.051
AGACAGCAAUAUUACGAGUC	-3.06 ± 0.19	-2.52 ± 0.22
AGACAGCAAUAUUACGAUGA	-2.02 ± 0.12	-0.531 ± 0.094
AGACAGCAAUAUUACGAUGG	-3.44 ± 0.16	-2.21 ± 0.16
AGACAGCAAUAUUACGCAAU	-2.41 ± 0.17	-0.644 ± 0.11
AGACAGCAAUAUUACGCCGU	-3.43 ± 0.21	-2.91 ± 0.29
AGACAGCAAUAUUACGCGAA	-2.45 ± 0.12	-0.878 ± 0.1
AGACAGCAAUAUUACGCUCC	-3.32 ± 0.48	-1.64 ± 0.19
AGACAGCAAUAUUACGUAGU	-3.27 ± 0.1	-1.88 ± 0.1
AGACAGCAAUAUUACGUAUA	-2.54 ± 0.14	-0.807 ± 0.13
AGACAGCAAUAUUACGUAUU	-2.58 ± 0.11	-1.4 ± 0.12
AGACAGCAAUAUUACGUCGG	-2.44 ± 0.15	-0.528 ± 0.15
AGACAGCAAUAUUACGUCUC	-2.87 ± 0.19	-3.53 ± 0.35
AGACAGCAAUAUUACGUGAU	-2.36 ± 0.075	-0.742 ± 0.087
AGACAGCAAUAUUACGUGCA	-0.683 ± 0.069	-0.00672 ± 0.079
AGACAGCAAUAUUACGUGGC	-3.01 ± 0.19	-2.12 ± 0.22
AGACAGCAAUAUUACGUUAA	-3.26 ± 0.14	-1.27 ± 0.087

Sequence	self-splicing fitness (ln) (30 °C)	self-splicing fitness (ln) (37 °C)
AGACAGCAAUAUUACGUUAG	-3.69 ± 0.21	-2.14 ± 0.15
AGACAGCAAUAUUACGUUGU	-3.02 ± 0.13	-2.21 ± 0.12
AGAGAGCAAUAUUACGAAAA	–	-1.5 ± 0.5
AGAGAGCAAUAUUACGACAG	-3.47 ± 0.43	-2.52 ± 0.41
AGAGAGCAAUAUUACGAGUC	–	-2.23 ± 0.29
AGAGAGCAAUAUUACGAUCG	-1.94 ± 0.11	-0.822 ± 0.18
AGAGAGCAAUAUUACGCAAA	-2.1 ± 0.32	-2.69 ± 0.48
AGAGAGCAAUAUUACGCGAA	-3.26 ± 0.37	-2.82 ± 0.34
AGAGAGCAAUAUUACGCGCG	–	-1.3 ± 0.48
AGAGAGCAAUAUUACGGGCG	-3.07 ± 0.34	-2.3 ± 0.5
AGAGAGCAAUAUUACGGGCU	-3.62 ± 0.23	-1.48 ± 0.42
AGAGAGCAAUAUUACGGUUG	–	-1.45 ± 0.41
AGAGAGCAAUAUUACGUACU	-1.2 ± 0.13	-1 ± 0.15
AGAGAGCAAUAUUACGUCAU	–	-1.01 ± 0.16
AGAGAGCAAUAUUACGUGAU	-3.94 ± 0.18	-2.1 ± 0.23
AGAGAGCAAUAUUACGUUGA	-2.77 ± 0.23	-2.06 ± 0.26
AGAUAGCAAUAUUACGAAUA	-2.76 ± 0.49	-2.16 ± 0.48
AGAUAGCAAUAUUACGAAUU	-2.43 ± 0.15	-1.25 ± 0.16
AGAUAGCAAUAUUACGAGAC	-3.94 ± 0.23	-2.96 ± 0.22
AGAUAGCAAUAUUACGAGCA	-0.984 ± 0.1	-0.95 ± 0.11
AGAUAGCAAUAUUACGAUCA	-0.325 ± 0.089	-0.00339 ± 0.11
AGAUAGCAAUAUUACGCCAG	-3.6 ± 0.5	-1.78 ± 0.39
AGAUAGCAAUAUUACGCGAA	-3.1 ± 0.28	-0.447 ± 0.17
AGAUAGCAAUAUUACGCGCA	-0.594 ± 0.063	-0.129 ± 0.094
AGAUAGCAAUAUUACGCUAC	-2.97 ± 0.44	-2.56 ± 0.38

Sequence	self-splicing fitness (ln) (30 °C)	self-splicing fitness (ln) (37 °C)
AGAUAGCAAUAUUACGCUCC	–	0.0911 ± 0.49
AGAUAGCAAUAUUACGCUGU	-3.36 ± 0.25	-3.22 ± 0.4
AGAUAGCAAUAUUACGGACA	-0.869 ± 0.15	-0.224 ± 0.16
AGAUAGCAAUAUUACGGAUU	-1.39 ± 0.1	0.228 ± 0.13
AGAUAGCAAUAUUACGGCAU	-0.734 ± 0.11	0.242 ± 0.12
AGAUAGCAAUAUUACGGCUA	0.0313 ± 0.1	0.162 ± 0.098
AGAUAGCAAUAUUACGGGAG	-2.43 ± 0.26	-1.95 ± 0.23
AGAUAGCAAUAUUACGGGUU	-2.78 ± 0.2	-2.29 ± 0.25
AGAUAGCAAUAUUACGGUUC	-1.77 ± 0.12	-0.791 ± 0.19
AGAUAGCAAUAUUACGUAAG	-1.31 ± 0.065	-1.44 ± 0.088
AGAUAGCAAUAUUACGUAAU	-1.52 ± 0.11	-0.657 ± 0.12
AGAUAGCAAUAUUACGUAUG	-2.57 ± 0.15	-2.3 ± 0.17
AGAUAGCAAUAUUACGUCAU	-1.89 ± 0.097	-0.716 ± 0.096
AGAUAGCAAUAUUACGUCUC	-3.01 ± 0.21	-3.05 ± 0.4
AGAUAGCAAUAUUACGUGAU	-1.92 ± 0.11	-0.886 ± 0.11
AGAUAGCAAUAUUACGUUAC	-2.05 ± 0.48	–
AGAUAGCAAUAUUACGUUAU	-3.23 ± 0.17	-3.55 ± 0.25
AGCAAGCAAUAUUACGAAAG	-2.4 ± 0.23	-1.36 ± 0.22
AGCAAGCAAUAUUACGAGGC	-4.52 ± 0.34	-2.51 ± 0.23
AGCAAGCAAUAUUACGAUAC	–	-1.72 ± 0.46
AGCAAGCAAUAUUACGCAUU	-2.57 ± 0.17	-1.45 ± 0.19
AGCAAGCAAUAUUACGGACC	0.36 ± 0.2	-0.517 ± 0.22
AGCAAGCAAUAUUACGGCAA	-0.272 ± 0.069	-0.342 ± 0.086
AGCAAGCAAUAUUACGGCAG	-0.65 ± 0.065	-0.357 ± 0.082
AGCAAGCAAUAUUACGUACC	-0.796 ± 0.078	0.398 ± 0.097

Sequence	self-splicing fitness (ln) (30 °C)	self-splicing fitness (ln) (37 °C)
AGCAAGCAAUAUUACGUAGA	-2.83 ± 0.15	-2.44 ± 0.2
AGCAAGCAAUAUUACGUGCA	-0.675 ± 0.058	0.058 ± 0.077
AGCAAGCAAUAUUACGUGUC	-3.85 ± 0.23	-2.44 ± 0.17
AGCAAGCAAUAUUACGUGUG	-2.9 ± 0.1	-1.17 ± 0.081
AGCAAGCAAUAUUACGUUUG	-4.51 ± 0.22	-2.76 ± 0.18
AGCCAGCAAUAUUACGAACG	-3.24 ± 0.27	-2.97 ± 0.37
AGCCAGCAAUAUUACGAAGC	-1.65 ± 0.22	-1.96 ± 0.37
AGCCAGCAAUAUUACGACUU	-1.6 ± 0.1	-0.895 ± 0.12
AGCCAGCAAUAUUACGAGAU	-3.39 ± 0.18	-2.28 ± 0.2
AGCCAGCAAUAUUACGAUCA	–	-2.69 ± 0.32
AGCCAGCAAUAUUACGCAAG	-3.8 ± 0.34	-2.98 ± 0.4
AGCCAGCAAUAUUACGCAUA	-2.21 ± 0.15	-1.34 ± 0.16
AGCCAGCAAUAUUACGCCCC	-1.54 ± 0.24	0.277 ± 0.32
AGCCAGCAAUAUUACGCUAA	-2.53 ± 0.18	-0.465 ± 0.12
AGCCAGCAAUAUUACGCUAU	-1.55 ± 0.12	-0.833 ± 0.13
AGCCAGCAAUAUUACGCUCA	-1.83 ± 0.1	-1.64 ± 0.13
AGCCAGCAAUAUUACGGCAG	-1.01 ± 0.065	-1.18 ± 0.092
AGCCAGCAAUAUUACGGGAA	-2.59 ± 0.19	-0.667 ± 0.12
AGCCAGCAAUAUUACGGGUA	-1.59 ± 0.094	-1.08 ± 0.092
AGCCAGCAAUAUUACGGUAG	-2.6 ± 0.097	-0.58 ± 0.085
AGCCAGCAAUAUUACGGUAU	-2.57 ± 0.1	-1.14 ± 0.094
AGCCAGCAAUAUUACGGUCU	-3.08 ± 0.18	-2.51 ± 0.18
AGCCAGCAAUAUUACGGUGG	-4.22 ± 0.19	-2.17 ± 0.17
